Stoichiometry N data for five substances are collected here from paper PMC8310366.

The target of assay [1] is DENV NS1 S233A mutant (dengue virus serotype 2 (DENV-2, strain 16681)). As to the kind of experiment: SDS-PAGE under non-heated, non-reduced conditions with immunoblotting. Background: Immunoblotting shows a protein as a band on a membrane.
For assay [2], the target named is DENV NS1 T29A mutant (dengue virus serotype 2 (DENV-2, strain 16681)). The description is as above.
Assay [3] concerns the target DENV NS1 T230A mutant (dengue virus serotype 2 (DENV-2, strain 16681)). Described as above.
Assay [4] concerns the target DENV NS1 V6A mutant (dengue virus serotype 2 (DENV-2, strain 16681)). The description is as above.
Assay [5] has as its target Dengue virus serotype 2 nonstructural protein 1 (DENV NS1), wild type (dengue virus serotype 2 (DENV-2, strain 16681)). The assay is described as above.
The target is the same in assay [6]. As to the kind of experiment: SDS-PAGE under non-heated, non-reduced conditions with Coomassie staining.

As a reminder, the stoichiometry N is a count of units in the complex or per binding partner.

Substance DENV NS1 S233A mutant (natural protein) yielded a stoichiometry N in assay [1] of 2. For DENV NS1 T29A mutant (natural protein), the stoichiometry N in assay [2] stood at 2. As for DENV NS1 T230A mutant (natural protein), the stoichiometry N in assay [3] was 2. On to DENV NS1 V6A mutant (natural protein), for which the stoichiometry N in assay [4] came out at 2.

With “Dengue virus serotype 2 nonstructural protein 1 (DENV NS1), wild type (natural protein)”, the stoichiometry N in assay [5] and in assay [6] was 2 throughout.
